Two molecules from article PMC10300122, “K235 acetylation couples with PSPC1 to regulate the m^6A demethylation activity of ALKBH5 and tumorigenesis” (Nature Communications, 2023) can be followed below.

The target of this experiment is T1, recombinant PSPC1-His (UniProt Q8WXF1 1-523).
T1 construct: paraspeckle component 1 (PSPC1) cloned into the pET 26b vector; source: E. coli BL21 (DE3), purified (His-tag Protein Purification Kit)
T1 sequence (looked up): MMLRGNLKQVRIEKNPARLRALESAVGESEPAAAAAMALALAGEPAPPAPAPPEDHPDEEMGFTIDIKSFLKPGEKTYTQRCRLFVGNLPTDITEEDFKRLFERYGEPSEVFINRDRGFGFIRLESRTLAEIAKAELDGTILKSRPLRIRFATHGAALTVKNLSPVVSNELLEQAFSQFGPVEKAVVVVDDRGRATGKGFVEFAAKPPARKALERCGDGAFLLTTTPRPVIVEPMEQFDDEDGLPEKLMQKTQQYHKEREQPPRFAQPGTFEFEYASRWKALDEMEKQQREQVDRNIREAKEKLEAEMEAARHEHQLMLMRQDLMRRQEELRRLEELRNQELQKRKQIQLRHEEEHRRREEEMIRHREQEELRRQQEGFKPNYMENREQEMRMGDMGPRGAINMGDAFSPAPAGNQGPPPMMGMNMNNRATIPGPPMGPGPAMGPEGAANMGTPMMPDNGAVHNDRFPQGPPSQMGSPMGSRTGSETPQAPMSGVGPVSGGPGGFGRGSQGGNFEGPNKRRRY
Description: pull-down; GST pull-down: GST-ALKBH5 on glutathione beads (untreated or K235-acetylated by immunopurified KAT8) incubated with PSPC1-His at 4 °C for 1 h; washed with 20 mM HEPES pH 7.6, 0.1 M KCl, 0.1 μM EDTA, 10% glycerol, 0.02% NP-40; western blot. The note with it: both partners purified. In general terms: Immunoblotting shows a protein as a band on a membrane.

B1: recombinant GST-ALKBH5 (enzyme, UniProt Q6P6C2 1-394, looked up)
chain: MAAASGYTDLREKLKSMTSRDNYKAGSREAAAAAAAAVAAAAAAAAAAEPYPVSGAKRKYQEDSDPERSDYEEQQLQKEEEARKVKSGIRQMRLFSQDECAKIEARIDEVVSRAEKGLYNEHTVDRAPLRNKYFFGEGYTYGAQLQKRGPGQERLYPPGDVDEIPEWVHQLVIQKLVEHRVIPEGFVNSAVINDYQPGGCIVSHVDPIHIFERPIVSVSFFSDSALCFGCKFQFKPIRVSEPVLSLPVRRGSVTVLSGYAADEITHCIRPQDIKERRAVIILRKTRLDAPRLETKSLSSSVLPPSYASDRLSGNNRDPALKPKRSHRKADPDAAHRPRILEMDKEENRRSVLLPTHRRRGSFSSENYWRKSYESSEDCSEAAGSPARKVKMRRH
notes: AlkB homolog 5 (ALKBH5) cloned into the pGEX vector; also called recombinant ALKBH5; source: E. coli BL21 (DE3), purified (Glutathione Sepharose)
Consider B1, for which the binding result is “binds”.

B2: recombinant K235-acetylated GST-ALKBH5 (enzyme, UniProt Q6P6C2 1-394, looked up)
chain: B1 chain
modifications: acetyl-lysine at 235
notes: AlkB homolog 5 (ALKBH5) cloned into the pGEX vector; The same construct as m6 after treatment with KAT8; source: E. coli BL21 (DE3), purified (Glutathione Sepharose), then K235-acetylated by immunopurified KAT8
In the case of B2, the binding result is listed as “binds”.
